Among the data in US6500929B1 are complement-mediated lysis of CHO cells (antibody against CHO cells, then 40% human serum) and complement-mediated lysis of swine vascular endothelial cells (SEC) by 20% and 40% human serum values, retold here.

In assay [1] the target is C1 (a first component of complement) of human serum (human) (UniProt P09871).
For assay [2] the target is unchanged. The source holds these as a separate data set.

The substance “FLAG-C1-INH-GPI (C1-INH-GPI with a FLAG epitope tag added to the C terminal of the signal peptide)” yielded a complement-mediated lysis of CHO cells (antibody against CHO cells, then 40% human serum) in assay [1] of 20%. The complement-mediated lysis of swine vascular endothelial cells (SEC) by 20% and 40% human serum in assay [2] was 20%.
